# Data taken from patent US20170029530A1 (AbbVie / Abbott, published 2017).
# Where a chain is given by its changes, count along the chain named. “And” between values parts separate entries of the source, which are not always exact repeats. Equal entries are not always repeated.
# T1: rat DPEP3 ECD with histidine tag (rat, UniProt Q5U2X4 36-459, limits assumed)
# T1 construct: also called rDPEP3-His; ratDPEP3-His; not shown: histidine tag
# T1 sequence: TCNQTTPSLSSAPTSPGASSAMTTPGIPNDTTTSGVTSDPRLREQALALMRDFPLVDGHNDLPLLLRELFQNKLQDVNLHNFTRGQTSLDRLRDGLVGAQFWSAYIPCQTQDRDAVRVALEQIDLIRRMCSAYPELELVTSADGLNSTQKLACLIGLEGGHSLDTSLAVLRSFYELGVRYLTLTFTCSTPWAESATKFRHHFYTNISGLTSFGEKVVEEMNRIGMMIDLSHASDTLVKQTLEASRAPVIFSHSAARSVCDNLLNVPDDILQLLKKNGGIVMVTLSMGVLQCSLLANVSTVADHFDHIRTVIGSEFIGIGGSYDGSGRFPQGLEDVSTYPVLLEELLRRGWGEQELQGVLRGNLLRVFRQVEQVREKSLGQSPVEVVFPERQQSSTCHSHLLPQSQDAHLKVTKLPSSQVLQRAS
# T2: mDPEP3 (limits assumed)
# T2 construct: also called mouse DPEP3-His; mouse DPEP3 ECD with histidine tag
# T2 single chain: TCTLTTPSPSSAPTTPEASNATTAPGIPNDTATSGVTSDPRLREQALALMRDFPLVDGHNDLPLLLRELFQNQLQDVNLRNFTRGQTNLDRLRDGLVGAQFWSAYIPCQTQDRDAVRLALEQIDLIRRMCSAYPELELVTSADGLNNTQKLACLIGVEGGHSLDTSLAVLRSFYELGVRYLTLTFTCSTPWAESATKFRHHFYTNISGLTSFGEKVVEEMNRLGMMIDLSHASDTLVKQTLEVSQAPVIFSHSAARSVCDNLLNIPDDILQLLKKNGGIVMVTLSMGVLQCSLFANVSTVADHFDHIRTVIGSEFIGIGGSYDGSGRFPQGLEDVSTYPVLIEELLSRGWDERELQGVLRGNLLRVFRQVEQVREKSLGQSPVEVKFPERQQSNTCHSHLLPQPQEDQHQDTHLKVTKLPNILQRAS
# T3: cDPEP3 (Macaca fascicularis, UniProt Q4R7M2)
# T3 construct: extracellular domain; also called cynomolgus DPEP3-His; cynomolgus DPEP3 ECD with histidine tag
# T3 sequence (single chain, looked up): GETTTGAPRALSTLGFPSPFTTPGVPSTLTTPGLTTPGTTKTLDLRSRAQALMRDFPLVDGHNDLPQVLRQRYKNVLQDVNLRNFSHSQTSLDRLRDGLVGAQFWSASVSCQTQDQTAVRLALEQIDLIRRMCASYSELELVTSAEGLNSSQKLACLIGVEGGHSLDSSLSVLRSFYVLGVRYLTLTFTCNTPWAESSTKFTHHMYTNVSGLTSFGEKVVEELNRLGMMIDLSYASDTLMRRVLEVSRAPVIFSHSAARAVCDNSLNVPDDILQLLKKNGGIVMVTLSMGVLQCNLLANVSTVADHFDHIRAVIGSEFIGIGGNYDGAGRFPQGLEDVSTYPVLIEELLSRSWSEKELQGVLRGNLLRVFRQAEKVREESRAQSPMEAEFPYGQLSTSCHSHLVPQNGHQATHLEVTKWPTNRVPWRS
# T4: hDPEP3-ECD-His (human, UniProt Q9H4B8 36-463)
# T4 construct: also called hDPEP3-His; monomeric hDPEP3-His antigen; not shown: histidine tag
# T4 sequence: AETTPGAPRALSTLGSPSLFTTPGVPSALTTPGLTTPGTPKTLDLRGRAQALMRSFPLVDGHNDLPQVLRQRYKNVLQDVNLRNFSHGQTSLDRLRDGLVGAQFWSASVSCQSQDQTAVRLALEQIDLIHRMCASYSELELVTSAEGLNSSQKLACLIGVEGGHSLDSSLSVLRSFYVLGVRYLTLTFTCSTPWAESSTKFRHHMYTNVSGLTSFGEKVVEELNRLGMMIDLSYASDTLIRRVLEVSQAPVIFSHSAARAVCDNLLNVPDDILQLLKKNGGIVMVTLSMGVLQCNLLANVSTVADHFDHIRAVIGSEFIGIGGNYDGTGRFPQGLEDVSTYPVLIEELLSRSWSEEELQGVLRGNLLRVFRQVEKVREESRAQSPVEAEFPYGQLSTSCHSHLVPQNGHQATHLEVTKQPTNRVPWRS
# B1: SC34.27 (antibody, mouse IgG1, V domains shown)
# VH: QVQLQQSGAELARPGASVKLSCKASGYTFRSYGINWVKQRTGQGLEWIGEIYPGRGDVYYNENFKGKATLTTDKSSSTAYMQLSSLTSEDSAVYFCARVHDYGSWFPYWGQGTLVTVSA
# VL: DIVMSQSPSSLAVSVGEKVTMSCKSSQSLLYSRNQKNYLAWYQQKPGQSPKLLIYWASTRESGVPDRFTGSGSGTDFTLTINSVKAEDLAVYYCHQYYRYPLTFGAGTKLELK
# B2: SC34.25 (antibody, mouse IgG1, V domains shown)
# VH: QVQLQQSGVELARPGASVKVSCKASGYTFTSYAISWVKQRTGQGLEWIGEIYPGSGETYYNEKFKGKATLTTDKSSSTAYMHLSSLTSEDSAVYLCGRVNDYGSWFPYWGQGTLVTVSA
# VL: B1 VL with V15G, N34Y, L39V, N82S, H95Q
# B3: SC34.89 (antibody, mouse IgG1, V domains shown)
# VH: QVQLQQSGAELARPGASVKLSCKASGYTFTSYAISWVKQRTRQGLEWIGEIYPGSGDIHYSGKFKGKASLTTDKSSSTAYMQLSSLTSEDSAVYFCARVHDYGSWFPYWGQGTLVTVSA
# VL: B1 VL with A12G, M21L, L30F, Y31N, S32K, N34D, T78I, N82R, Y97S
# B4: SC34.19 (antibody, mouse IgG1, V domains shown)
# VH: B1 VH with R30T, G33A, N35T, R55S, D57N, V58T, Y59F, Y60F, N63K, K67R
# VL: B1 VL with S10A, V19I, S25C, Y31H, N34D, S83T, H95Q, Y97H
# B5: SC34.13 (antibody, mouse IgG2a, V domains shown)
# VH: B3 VH with L4V, R42G, D57N, I58T, H59Y, S61N, S69T, H100D
# VL: B1 VL with M21L, N34Y, K51R, L53V, N82S, A90V, H95Q, A106S
# B6: SC34.58 mouse anti-DPEP3 antibody (antibody, V domains shown)
# VH: B1 VH with R30T, I34V, E62D
# VL: B1 VL with N82S, Y97H, K113R
# notes: Mouse hybridoma antibody
# B7: SC34.16 (antibody, mouse IgG1, V domains shown)
# VH: QVQLQQSGTELARPGASVKLSCKASEYTFTSYAITWVRQRTGQGLEWIGEIYPGSGNTYYNETFKGKATLTSDKSSSTASMQLSSLTSEDSAVYFCARVHDYGSWFPYWGQGTLVTVSA
# VL: B1 VL with N34Y, A57S, N82S, V91D, H95Q
# B8: SC34.86 (antibody, mouse IgG1, V domains shown)
# VH: B1 VH with R30T, G33T, N35T, R55S, D57N, V58T, N63K
# VL: B1 VL with I2T, M21L, N34Y, I54L, N82S, H95Q, Y97H
# B9: SC34.87 (antibody, mouse IgG2a, V domains shown)
# VH: QVQLQQSGAELAKPGASVKMSCKASGYTFTSYWMLWVKQRPGQGLEWIGYIDPRNGYTEYNQKFKDKATLTADKSSSTAYMQLSSLTSEDSAVYYCTRGGNVAMDYWGQGTSVTVSS
# VL: DIVMSQSPSSLAVSAGEKVTMSCKSSQSLLNSRTRKNYLAWYQQKPGQSPKLLIYWASTRESGVPGRFTGSGSGTDFTLTISSVQAEDLAVYYCKQSYNLWTFGGGTKLEIK
# B10: SC34.14 (antibody, mouse IgG1, V domains shown)
# VH: EVQLQQSGPEMVKPGASVKISCKASGYIFTDYYMHWVKQSHGESLDWIGRVNPKKGGTTYNQKFEGKAILTVDKSSSTAYMDLNSLTSEDSAVYYCAMGIYYSYDASFDYWGQGTTLTVSS
# VL: DIQMTQAPASLSPSVGATVTITCRTSEHIYSYLAWYQQKQGKSPRLLVYNAKTLAEGVSSRFSGSGSGTQFSLQINSLQPEDFGNYYCQHHYDTPYTFGGGTKLEIK
# B11: SC34.48 (antibody, mouse IgG1, V domains shown)
# VH: B10 VH with P9L, E43K, I69T, Y102F
# VL: B10 VL with P13A, A17E, E27G, R45Q, Q74K, N76T, N85D
# Molecular target: T5, hDPEP2 ECD with histidine tag (human, UniProt Q9H4A9 33-463)
# T5 construct: also called hDPEP2-His; not shown: histidine tag
# Test: ELISA, coated antigen
# Description: (§1) The anti-DPEP3 antibodies were screened by ELISA for cross-reactivity with mouse, rat and cynomolgus DPEP3 and for cross reactivity to hDPEP2, the closest DPEP3 family member. ELISA was conducted as follows. Plates were coated with purified mouse, rat or cynomolgus DPEP3-His or hDPEP2-His at 0.3 μg/mL in 0.2 M carbonate-bicarbonate buffer, pH 9.4 overnight at 4° C. The protein solution was removed and the wells were blocked with 1% (w/v) BSA in PBS (PBSA), 100 μL/well for 1 hour at 37° C. Anti-DPEP3 antibody or a mouse isotype control antibody was then added at 1 μg/mL in 50 μL PBSA for 1 hour at room temperature. After washing with water, 50 μL/well HRP-labeled goat anti-mouse IgG antibody diluted 1:10,000 in PBSA was added for 30 min at room temperature. The plates were washed and developed by the addition of 40 μL/well of the TMB substrate solution (Thermo Scientific) at room temperature. An equal volume of 0.2 M H₂SO₄ was added to stop substrate development. The samples were then analyzed by spectrophotometer at OD 450. […] The cross reactivity results for exemplary DPEP3-specific antibodies can be seen in FIG. 4.
# T5 sequence (Q9H4A9 33-463): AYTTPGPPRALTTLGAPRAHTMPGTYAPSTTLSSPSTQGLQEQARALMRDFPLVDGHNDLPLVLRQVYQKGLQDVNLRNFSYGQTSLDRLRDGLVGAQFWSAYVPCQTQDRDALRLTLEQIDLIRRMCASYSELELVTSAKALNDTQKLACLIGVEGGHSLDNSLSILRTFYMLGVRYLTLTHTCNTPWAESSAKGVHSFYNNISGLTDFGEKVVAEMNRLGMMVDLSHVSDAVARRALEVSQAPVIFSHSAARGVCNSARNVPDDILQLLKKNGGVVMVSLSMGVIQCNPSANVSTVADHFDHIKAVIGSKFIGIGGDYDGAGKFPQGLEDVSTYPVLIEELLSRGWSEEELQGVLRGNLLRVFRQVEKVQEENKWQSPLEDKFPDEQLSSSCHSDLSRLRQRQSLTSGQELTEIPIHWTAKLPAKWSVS
row,binding result,Binder
1,no binding (tested: 1 ug/mL),B1
2,no binding (tested: 1 ug/mL),B2
3,no binding (tested: 1 ug/mL),B3
4,no binding (tested: 1 ug/mL),B4
5,no binding (tested: 1 ug/mL),B5
6,no binding (tested: 1 ug/mL),B6
7,no binding (tested: 1 ug/mL),B7
8,no binding (tested: 1 ug/mL),B8
9,no binding (tested: 1 ug/mL),B9

# Molecular target: T1, rat DPEP3 ECD with histidine tag
# Test: ELISA, coated antigen
# Description: as §1
row,binding result,Binder
1,no binding (tested: 1 ug/mL),B10
2,no binding (tested: 1 ug/mL),B11
3,no binding (tested: 1 ug/mL),B1
4,no binding (tested: 1 ug/mL),B2
5,no binding (tested: 1 ug/mL),B3
6,no binding (tested: 1 ug/mL),B4
7,no binding (tested: 1 ug/mL),B5
8,no binding (tested: 1 ug/mL),B6
9,no binding (tested: 1 ug/mL),B7
10,no binding (tested: 1 ug/mL),B8

# Molecular target: T2, mDPEP3
# Test: ELISA, coated antigen
# Description: as §1
row,binding result,Binder
1,no binding (tested: 1 ug/mL),B10
2,no binding (tested: 1 ug/mL),B11
3,no binding (tested: 1 ug/mL),B1
4,no binding (tested: 1 ug/mL),B2
5,no binding (tested: 1 ug/mL),B3
6,no binding (tested: 1 ug/mL),B4
7,no binding (tested: 1 ug/mL),B5
8,no binding (tested: 1 ug/mL),B6
9,no binding (tested: 1 ug/mL),B7
10,no binding (tested: 1 ug/mL),B8
11,no binding (tested: 1 ug/mL),B9

# Molecular target: T3, cDPEP3
# Test: ELISA, coated antigen
# Description: as §1
row,binding result,Binder
1,no binding (tested: 1 ug/mL),B10
2,no binding (tested: 1 ug/mL),B11
3,no binding (tested: 1 ug/mL),B9

# Molecular target: T4, hDPEP3-ECD-His
# Test: BLI ForteBio RED, 200 nM hDPEP3-His, estimated grade
# Description: The affinity of the antibodies for hDPEP3-His was qualitatively determined from kinetics curves generated with a ForteBio RED as follows. Anti-DPEP3 antibodies were immobilized onto anti-mouse Fc capture biosensors with a contact time of 3 mins. and a flow rate of 1000 rpm. The captured antibody loading from baseline was constant at 0.3-1 units. Following antibody capture and 30 second baseline, the biosensors were dipped into a 200 nM solution of hDPEP3-His for a 4 min. association phase followed by a 3 min. dissociation phase at a shaking rate of 1000 rpm. The biosensors were regenerated by dipping into 10 mM glycine, pH 1.7 following each cycle. The data was processed by subtracting a control mouse IgG surface response from the specific antibody response and data was truncated to the association and dissociation phase. The association and dissociation curves were used to qualitatively estimate the affinities of selected antibodies. […] A designation of “ND” means that the estimated KD was not determined.
row,Kd,Binder
1,< 5 nM,B10
2,< 5 nM,B11
3,< 5 nM,B1
4,< 5 nM,B2
5,< 5 nM,B3
6,≥ 5 nM and ≤ 10 nM,B4
7,≥ 5 nM and ≤ 10 nM,B5
8,< 5 nM,B6
9,< 5 nM,B7
10,< 5 nM,B8
11,≥ 5 nM and ≤ 10 nM,B9
